Data taken from patent US6784157B2, “Peptides and peptidomimetics with structural similarity to human p53 that activate p53 function” (Bayer Corporation, priority 1995, dated 2004).
Read-outs that look alike come from different tables or passages of the source. Each block holds one molecule with its values, some of them ahead of it. Starred links: 1 amine or outer side, 2 acyl side, 3 side chain; linkers in the order of their positions; H or OH if unused. Non-standard residues stand in square brackets, D forms with d. Residues, ends and D or L forms follow the SMILES beside them. No end group written: not given here. X1 = O=C([C@H](CC1C=NC=N1)N[*:1])[*:2]

How the values were obtained:
[1] = molecular target: T1, human wild-type p53 (Homo sapiens, UniProt P04637); assay: p53 DNA binding assay: activation of DNA binding of wild-type p53; assay type: biochemical; settings: for potency in activating DNA binding relative to p53p373-383: 0.4 mM; for activation of binding of wild-type p53: peptide 0.4 mM
T1 construct: Plasmid pGEMhump53wt encodes full-length human wild-type p53; made in house; host or cells: cell-free in vitro transcription and translation from pGEM4-based plasmid

[2] = molecular target: T2, p53 mutant His273 (Homo sapiens, UniProt P04637, R273H); assay: p53 DNA binding assay: activation of DNA binding of mutant His273; assay type: biochemical; settings: oligonucleotide BC
T2 construct: made in house; host or cells: cell-free in vitro transcription and translation from pGEMhump53His273
Description: (§1) The ability of the peptides of this invention to activate DNA binding of human p53 was assayed using a standard DNA binding assay for p53 [Halazonetis et al. (1993), cited above; Halazonetis and Kandil (1993), cited above]. This assay utilizes in vitro translated human wild-type p53 or tumor-derived p53 mutants and specific oligonucleotides containing p53 binding sites. These reagents and methods for preparing them are described below.
Plasmid pGEMhump53wt was used to generate plasmids encoding mutant p53 proteins frequently associated with human cancer. The mutations introduced are those that are most frequently associated with human tumors [Caron de Fromentel et al. (1992), Genes Chrom. Cancer, 4: 1-15]. […]
Plasmids of the pGEMhump53 series were used to produce in vitro transcribed mRNA and subsequently in vitro translated protein, according to standard procedures [Halazonetis et al. (1988), Cell, 55: 917-924]. […] Thus, the presence of slowly migrating DNA, which can be detected by autoradiography, indicates p53 DNA binding [Halazonetis et al. (1993), cited above; Halazonetis and Kandil (1993), cited above]. […]

[3] = system: oligonucleotide BC.V4A; assay: DNA binding assay of in vitro translated p53 deletion mutants (gel shift)
Description: as §1
Plasmids of the pGEMhump53 series were used to produce in vitro transcribed mRNA and subsequently in vitro translated protein, according to standard procedures [Halazonetis et al. (1988), Cell, 55: 917-924]. The in vitro translated proteins were assayed for DNA binding, as previously described [Halazonetis et al. (1993), cited above, and incorporated herein by reference]. Briefly the in vitro translated protein is incubated with a radioactively labeled oligonucleotide containing a p53 binding site in the presence of non-specific competitor DNA. The reaction mixture is incubated 20 min. at room temperature and directly loaded on a native 5% polyacrylamide electrophoresis gel. In this type of DNA binding assay free DNA migrates to the bottom of the gel, whereas p53/DNA complexes migrate more slowly. Thus, the presence of slowly migrating DNA, which can be detected by autoradiography, indicates p53 DNA binding [Halazonetis et al. (1993), cited above; Halazonetis and Kandil (1993), cited above].
As non-specific competitor DNAs we used 0.1 μg single-stranded oligonucleotide MI7 [[…], SEQ ID NO: 27] and 0.05 μg double-stranded oligonucleotide TF3 [[…], SEQ ID NO: 28] per reaction.
A number of double-stranded oligonucleotides containing p53 binding sites were radioactively labeled for these experiments. […] These three sites are indicated below, and the specific pentanucleotide repeats recognized by p53 are demarcated by hyphens. The sequence of oligonucleotide Ewaf1 (top strand) is: CCC-GAACA-TGTCC-CAACA-TGTTG-GGG [SEQ ID NO: 29]. […]

[4] = oligonucleotide Ewaf1, peptide 0.2-0.3 mM

efficiency of activation of p53 DNA binding relative to 0.05 mM peptide p53p363-373 ([1]; peptide 0.1 mM, assay of Example 2, p53 form and oligonucleotide not stated): about two times more efficiently
Molecule: C[C@H]1NC(=O)[C@H](CCCCN)NC(=O)[C@H](CCCCN)NC(=O)[C@H](CC2C=NC=N2)NC(=O)[C@H](CCCNC(=N)N)NC(=O)[C@H](CO)NC1=O (some centres unmarked) [c[SRHKKa]] (cyclo(KK[dA]SR[X1]))

potency in activating DNA binding relative to p53p373-383 ([1]; oligonucleotide Ewaf1): somewhat more potent
activation of binding of wild-type p53 ([1]; oligonucleotide Ewaf1): activated
Molecule: Arg Ala His Ser Ser His Leu Lys Ser Lys Lys (Ac-RAHSSHLKSKK-NH2) [p53p363-373]

activation of DNA binding of wild-type p53 [1, 4]: activated
Molecule: Arg Ala His Ser Ser His Leu Lys Ser Lys Lys Gly Gln Ser Thr Ser Arg His Lys Lys Leu Met Phe Lys (Ac-RAHSSHLKSKKGQSTSRHKKLMFK-NH2) [p53p363-386]

Molecule: Cys Gly Gly Ser Arg Ala His Ser Ser His Leu Lys Ser Lys Lys Gly Gln Ser Thr Ser Arg His Lys Lys Leu Met Phe Lys (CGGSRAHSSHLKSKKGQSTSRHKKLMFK; also: mixed with deletion peptides lacking Gly/Phe) [p53pC360-386]
DNA binding activity of p53His273 in presence of peptide ([2]; peptide 0.2 mM): demonstrated DNA binding activity
activation of DNA binding of wild-type p53 ([1]; oligonucleotide BC.V4A, 0.02-0.2 mM peptide): activated
activation of DNA binding of wild-type p53 ([1]; oligonucleotide Ewaf1, concentration not given): activated

potency in activating DNA binding relative to p53p373-383 ([1]; oligonucleotide Ewaf1): somewhat more potent
activation of binding of wild-type p53 ([1]; oligonucleotide Ewaf1): activated
Molecule: His Leu Lys Ser Lys Lys Gly Gln Ser Thr Ser Arg His (Ac-HLKSKKGQSTSRH-NH2) [p53p368-380]

activation of binding of wild-type p53 ([1]; oligonucleotide Ewaf1): activated
Molecule: Lys Gly Gln Ser Thr Ser Arg His Lys Lys Leu (Ac-KGQSTSRHKKL-NH2) [p53p373-383]

activation of DNA binding of wild-type p53 [1, 4]: activated
Molecule: Ser Arg Ala His Ser Ser His Leu Lys Ser Lys Lys Gly Gln Ser Thr Ser Arg His Lys Lys Leu Met Phe Lys (Ac-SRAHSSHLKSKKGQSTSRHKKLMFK-NH2) [p53p362-386]

activation of DNA binding of wild-type p53 [1, 4]: activated
Molecule: Ser His Leu Lys Ser Lys Lys Gly Gln Ser Thr Ser Arg His Lys Lys Leu Met Phe Lys (Ac-SHLKSKKGQSTSRHKKLMFK-NH2) [p53p367-386]

Molecule: Ser Lys Lys Gly Gln Ser Thr Ser Arg His Lys Lys Leu (SKKGQSTSRHKKL) [p53p371-383]
DNA binding activity of p53His273 in presence of peptide ([2]; peptide 0.4 mM): demonstrated DNA binding activity
activation of DNA binding of wild-type p53 ([1]; oligonucleotide BC.V4A, peptide 0.2-0.4 mM): activated

Binding of Mutant p53 to BC.V4A DNA [3]: activated
Molecule: p53D356-393: human wild-type p53 with deletion of residues 356-393, in vitro translated

Binding of Mutant p53 to BC.V4A DNA [3]: activated
Binding of Mutant p53 to BC.V4A DNA ([3]; listed as pGEMhump53D364-393): activates DNA binding
Molecule: p53D364-393: human wild-type p53 with deletion of residues 364-393, in vitro translated
